From patent publication US20180000964A1 (Genentech, published 2018)
Read-outs that look alike come from different tables or passages of the source. Values belong to the binder of their own block, whether it stands above or below them.

What was measured:
[1] = biological target: murine basigin extracellular domain, murine Fc tagged (murine); experiment: competitive ELISA on coated murine basigin against biotinylated bispecific antibody
[2] = biological target: T1, murine basigin extracellular domain, murine Fc tagged (murine); experiment: as above
T1 construct: also called mBsg ECD; murine basigin (ELISA antigen)
T1 chain: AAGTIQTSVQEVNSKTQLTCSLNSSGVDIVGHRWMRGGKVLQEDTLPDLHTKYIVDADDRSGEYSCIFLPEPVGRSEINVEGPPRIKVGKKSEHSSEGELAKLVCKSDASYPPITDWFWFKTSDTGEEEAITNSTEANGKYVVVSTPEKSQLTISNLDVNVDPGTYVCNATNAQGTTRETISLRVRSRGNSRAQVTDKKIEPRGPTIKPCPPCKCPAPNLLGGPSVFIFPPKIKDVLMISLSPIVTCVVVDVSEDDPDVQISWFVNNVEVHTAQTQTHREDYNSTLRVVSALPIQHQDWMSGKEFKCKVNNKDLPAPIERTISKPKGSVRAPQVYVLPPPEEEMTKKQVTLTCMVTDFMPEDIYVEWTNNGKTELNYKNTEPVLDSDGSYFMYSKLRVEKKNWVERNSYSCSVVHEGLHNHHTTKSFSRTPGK
Description: Nunc 96-well Maxisorp immunoplates were coated overnight at 4° C. with antigen (2 μg/ml) and blocked for 1 hour at room temperature with blocking buffer PBST. Serial dilutions of bivalent or bispecific antibodies were subsequently added to the plates with a sub-saturating concentration of biotinylated bispecific antibody at room temperature for 1 hour. Plates were washed with wash buffer (PBS with 0.05% Tween 20) and incubated for 30 minutes with horseradish peroxidase (HRP)-conjugated streptavidin, and developed with tetramethylbenzidine (TMB) substrate. Absorbance was measured spectrophotometrically at 650 nm.

[3] = biological target: T1, murine basigin extracellular domain, …; experiment: Biacore; 'Binding affinity (nM)'; form of the antigen not stated
[4] = biological target: T2, murine Glut1 (on cells) (murine, UniProt P17809 1-492); experiment: flow cytometry (MFI) on HEK293 cells stably expressing Glut1; bivalent (monospecific) anti-Glut1, not the bispecific anti-Glut1/BACE1
T2 construct: whole, on cells; also called glucose transporter 1; Slc2a1
T2 sequence (looked up): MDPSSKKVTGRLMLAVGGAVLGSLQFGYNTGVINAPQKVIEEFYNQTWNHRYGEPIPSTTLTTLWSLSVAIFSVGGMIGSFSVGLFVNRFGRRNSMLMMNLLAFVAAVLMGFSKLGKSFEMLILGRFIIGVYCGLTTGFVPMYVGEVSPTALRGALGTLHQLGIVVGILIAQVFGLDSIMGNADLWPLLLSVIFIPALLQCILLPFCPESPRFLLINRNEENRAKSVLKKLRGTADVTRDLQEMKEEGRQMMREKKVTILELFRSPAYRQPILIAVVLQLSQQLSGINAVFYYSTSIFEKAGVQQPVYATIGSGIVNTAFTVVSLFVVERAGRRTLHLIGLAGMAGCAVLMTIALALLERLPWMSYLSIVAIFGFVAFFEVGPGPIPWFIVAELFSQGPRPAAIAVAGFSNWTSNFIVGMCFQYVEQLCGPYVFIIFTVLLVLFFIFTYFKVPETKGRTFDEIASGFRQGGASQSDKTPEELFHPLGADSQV
Description: Purified antibodies were screened on 293 cells transfected with the corresponding antigens. Cells were collected from flasks/dishes, washed with phosphate-buffered saline (PBS), and added to 96-well U-bottom plates (BD Falcon 353077, BD, Franklin Lakes, N.J.) at 1,000,000 cells per well. Samples were added to cells (100 μL/well) and incubated at 4° C. for 30-60 minutes. Plates were then centrifuged (1200 rpm, 5 minutes, 4° C.) and washed twice with PBS/1% FBS (200 μl per well). R-Phycoerythrin-conjugated Ziege anti-human IgG Fc (Jackson ImmunoReseach Laboratories Inc. (West Grove, Pa.); 109-116-098; 100 μl diluted in PBS) was then added and the plates incubated at 4° C. (covered) for 30 minutes. After the final wash, the cells were fixed in PBS containing 1% formalin, and read using a FACSCalibur™ flow cytometer (BD Biosciences, San Jose, Calif.). Mean fluorescence intensity (MFI) of each sample was then measured using the FlowJo software (Treestar, Inc., Ashland, Oreg.).

IC50 [1]: 106 nM
IC50 [2]: 7.1 nM
Kd [3]: 13.5 nM
B1: anti-Bsg^A (antibody, V domains shown)
VH: EVQLVESGGGLVLPGRSMKLSCAASGFTFRTYYMAWVRQAPTKGLEWVASISIGGDNTYYRDSVMGRFTISRDDAKSTLHLQMDNLRSEDTATYYCVRLRGYFDYWGQGVMVTVSS
VL: EIVLTQSPATMPASPGEKVTLTCRASSSIRYIYWYQQKSGTSPKLWIYDTSKLASGVPNRFSGSGSGTSYSLTISSMETEDTATYYCQQGRSYPLTFGSGTKLEIK
notes: also called bivalent (monospecific) anti-Bsg^A

EC50 [4]: 0.6 µg/mL
B2: anti-Glut1 antibody (antibody, V domains shown)
VH: QVQLQQPGSVLVRPGASVKLSCKASGYTFTGSWLHWAKQRPGQGLEWIGEIHPYSGNTNYNERFKGKATLTVDTPSSTAYVDLRSLTFEDSAVYYCAKEGGWFLRIYGMDYWGQGTSVTVSS
VL: DIVLTQSPSSLSASLGDTITITCHASQNINVWLSWYQQKPGNIPKLLIYKASNLHSGVPSRFSGSGSGTGFTLTISSLQPEDIATYYCQQGQTFPYTFGGGTRLEIK
notes: Raised by DNA immunization with hGlut1 cDNA; also called bivalent (monospecific) anti-Glut1

IC50 [1]: 127 nM
IC50 [2]: 17.5 nM
Kd [3]: 102 nM
B3: anti-Bsg^B (antibody, V domains shown)
VH: EVQLVESGGGLVQPGRSLKLSCVASGFTFNNYWMTWIRQAPGKGLEWFASITNTGGSTYYPDSVKGRFTISRDNAQSTLYLQTNSLRPEDTATYYCARRDGSYYPYYWYFDLWGPGTTVTVSS
VL: NTVMTQSPTSMFISVGDRVTMNCKASRSVGTNVDWYQQKTGQSPTLLFYGASNRYIGVPDRFTGSGSGTDFTLTISNMQAEDLAVYYCLQYNYNWAFGGGTKLELK
notes: also called bivalent (monospecific) anti-Bsg^B
